Experimental findings from patent publication US20250186602A1, “HUMANIZED ANTIBODY THAT BONDS TO EVA1 PROTEIN OR FUNCTIONAL FRAGMENT THEREOF, ANTIBODY-DRUG CONJUGATE AND CHIMERIC ANTIGEN RECEPTOR” (CURED INC., priority 2022, published 2025) are described below.

Entries after “also recorded” stand apart in the source; their conditions may differ.

One assay concerns Eval-positive HuCCT-1. Put plainly: Amplification of Eval-CAR-T after antigen stimulation (co-culture with irradiated Eval-positive HuCCT-1). In kind it is cell-based, human. The method, then:
Eval-positive HuCCT-1, was irradiated with a radioactive ray of 100 Gy, and was co-cultured with the CAR-Ts in 1:1, and the amplification efficiencies of these were analyzed. In FIG. 3J, amplification efficiencies in time series are shown. In FIG. 3K, the amplification factors at Day 4 were plotted.
In the same manner as described above, Eval-positive HuCCT-1, was irradiated with a radioactive ray of 100 Gy, and was co-cultured with the CAR-T-cells in 1:1. Then, 50 U/ml of IL-2 was added once every three days, at Day 1, 4, and 7, followed by culturing. In FIG. 3L, the respective amplification efficiencies in time series are shown. In FIG. 3M, the amplification factors at Day 18 were plotted.
In the same manner as described above, Eval-positive HuCCT-1, was irradiated with a radioactive ray of 100 Gy, and was co-cultured with hEva1 CAR-T-cells in 1:1.
In the same manner as described above, Eval-positive HuCCT-1, was irradiated with a radioactive ray of 100 Gy, and was co-cultured with hEva1-CAR-Ts in 1:1.

Assay [1] deals with hEva1-mouse Fc. Put plainly: Surface plasmon resonance kinetics analysis (BiaCore T200, single-cycle). In kind it is binding, human. The settings on record: SPR, antibody captured 5 nM, analyte hEva1-mouse Fc 1-250 nM, HBS-EP+ pH 7.4. The method, then: (§1) The dissociation constants and association constants of the humanized antibodies and the like were analyzed by using surface plasmon resonance (SPR, product name: BiaCore T200 (manufactured by GE healthcare)).
Specifically, first, human IgG capture antibodies were immobilized on a CM5 chip by an amine coupling method. This immobilization was conducted in both reference cells and active cells. Then, the kinetics analysis on the anti-Eval antibody and hEva1 was conducted by a single-cycle method using the following measurement conditions.
• Sample compartment temperature: 10° C. • Running buffer: HBS-EP+buffer, pH 7.4 • Capturing molecule: Human IgG antibody, reference & active cells • Ligand: Various antibodies 5 nM, active cells only • Analyte: hEva1-mouse Fc1, 5, 25, 125, 250 nM, reference & active cells • Regeneration buffer: 3M MgCl2, reference & active cells • 3 cycles of Blanks (Analyte zero concentration)

Assay [2] deals with T1, hEva1-mouse Fc (human, UniProt O60487 27-154, limits assumed).
T1 construct: SPR analyte; the '1' is probably the first concentration (1 nM); also called hEva1-mouse Fc1 (so in the source); not shown: mouse Fc
T1 sequence: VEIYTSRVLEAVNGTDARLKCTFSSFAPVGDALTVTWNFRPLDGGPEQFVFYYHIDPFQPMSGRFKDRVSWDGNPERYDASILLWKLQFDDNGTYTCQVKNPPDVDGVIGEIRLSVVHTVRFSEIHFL
Briefly: SPR (BiaCore T200), single-cycle kinetics; antibody captured by anti-human IgG on CM5 chip, hEva1-mouse Fc as analyte; antibody made in CHO cells.

Assay [3] has as its target T1, hEva1-mouse Fc. Put plainly: SPR (BiaCore T200), single-cycle kinetics; antibody captured by anti-human IgG on CM5 chip, hEva1-mouse Fc as analyte; antibody made in HEK293T cells. As to the method: as §1
Specifically, first, human IgG capture antibodies were immobilized on a CM5 chip by an amine coupling method. […] Then, the kinetics analysis on the anti-Eval antibody and hEva1 was conducted by a single-cycle method using the following measurement conditions.
(SPR reads the build-up and loss of mass on a sensor chip optically.)

Take “15aa: mouse antibody-derived Eval-CAR-T with spacer length 15aa (SEQ ID NO: 59) (EPKSSDKTHTSPPCP; Hinge region:15aa)”: the “amplification efficiency after Eval stimulation” value in the assay with Eval-positive HuCCT-1 (50 U/ml IL-2 at Day 1, 4, 7, co-culture 1:1 with HuCCT-1 irradiated 100 Gy) is recorded as “cell amplifications tended to be better; also recorded: most excellent in cell growth”; in the assay with Eval-positive HuCCT-1 (absence of IL-2, co-culture 1:1 with HuCCT-1 irradiated 100 Gy) it was “higher cell amplifications”.

B1: H3-L3: humanized B2E5-48 IgG1, VH H3 (SEQ ID NO: 16), VL L3 (SEQ ID NO: 10) (antibody, V domains shown)
VH: QVQLVQSGSELKKPGASVKVSCKASGYTFTNYWMHWVRQAPGQGLEWIGEINPTNGGTDYNEGFTGRFVLSVDKSSSTAYLQISSLKAEDTAVYYCTIYTTALDYWGQGTLVTVSS
VL: QIQLTQSPSFLSASVGDRVTITCRASSSVGYMYWYQQKPGKAPKPLIYVTSNLASGVPSRFSGSGSGTEYTLTISSLQPEDFATYYCQQWSSNPPTFGQGTKLEIK
modifications: Variable Region of Heavy Chain 3 (Humanized B2E5-48); Variable Region of Light Chain 3 (Humanized B2E5-48)
In the assay on hEva1-mouse Fc [1], B1 registered a ka of 15010 M⁻¹ s⁻¹ and a kd of 0.01253 s⁻¹.

B2: H4-L2: humanized B2E5-48 IgG1, VH H4 (SEQ ID NO: 14), VL L2 (SEQ ID NO: 7) (antibody, V domains shown)
VH: QVQLVQSGSELKKPGASVKVSCKASGYTFTNYWMHWVRQAPGQGLEWMGEINPTNGGTDYNEGFTGRFVFSVDKSVSTAYLQISSLKAEDTAVYYCTIYTTALDYWGQGTLVTVSS
VL: EIVLTQSPATLSLSPGERATLSCRASSSVGYMYWYQQKPGQAPRPLIYVTSNRATGIPARFSGSGSGTDYTLTISSLEPEDFAVYYCQQWSSNPPTFGQGTKLEIK
modifications: Variable Region of Heavy Chain 4 (Humanized B2E5-48); Variable Region of Light Chain 2 (Humanized B2E5-48)
As for B2, in the assay with hEva1-mouse Fc [1], the ka came to 18980 M⁻¹ s⁻¹ and the kd came out at 0.01457 s⁻¹.

B3: H3-L4: humanized B2E5-48 IgG1, VH H3 (SEQ ID NO: 16), VL L4 (SEQ ID NO: 8) (antibody, V domains shown)
VH: QVQLVQSGSELKKPGASVKVSCKASGYTFTNYWMHWVRQAPGQGLEWIGEINPTNGGTDYNEGFTGRFVLSVDKSSSTAYLQISSLKAEDTAVYYCTIYTTALDYWGQGTLVTVSS
VL: DIQLTQSPSFLSASVGDRVTITCRASSSVGYMYWYQQKPGKAPKPLIYVTSNLASGVPSRFSGSGSGTEYTLTISSLQPEDFATYYCQQWSSNPPTFGQGTKLEIK
modifications: Variable Region of Heavy Chain 3 (Humanized B2E5-48); Variable Region of Light Chain 4 (Humanized B2E5-48)
In the assay on hEva1-mouse Fc [1], B3 displayed a ka of 15800 M⁻¹ s⁻¹ and a kd of 0.0138 s⁻¹.

B4: H4-L3: humanized B2E5-48 IgG1, VH H4 (SEQ ID NO: 14), VL L3 (SEQ ID NO: 10) (antibody, V domains shown)
VH: QVQLVQSGSELKKPGASVKVSCKASGYTFTNYWMHWVRQAPGQGLEWMGEINPTNGGTDYNEGFTGRFVFSVDKSVSTAYLQISSLKAEDTAVYYCTIYTTALDYWGQGTLVTVSS
VL: QIQLTQSPSFLSASVGDRVTITCRASSSVGYMYWYQQKPGKAPKPLIYVTSNLASGVPSRFSGSGSGTEYTLTISSLQPEDFATYYCQQWSSNPPTFGQGTKLEIK
modifications: Variable Region of Heavy Chain 4 (Humanized B2E5-48); Variable Region of Light Chain 3 (Humanized B2E5-48)
In the assay with hEva1-mouse Fc [1], B4 registered a ka of 15480 M⁻¹ s⁻¹ and a kd of 0.01357 s⁻¹.

B5: H4-L4: humanized B2E5-48 IgG1, VH H4 (SEQ ID NO: 14), VL L4 (SEQ ID NO: 8) (antibody, V domains shown)
VH: QVQLVQSGSELKKPGASVKVSCKASGYTFTNYWMHWVRQAPGQGLEWMGEINPTNGGTDYNEGFTGRFVFSVDKSVSTAYLQISSLKAEDTAVYYCTIYTTALDYWGQGTLVTVSS
VL: DIQLTQSPSFLSASVGDRVTITCRASSSVGYMYWYQQKPGKAPKPLIYVTSNLASGVPSRFSGSGSGTEYTLTISSLQPEDFATYYCQQWSSNPPTFGQGTKLEIK
modifications: Variable Region of Heavy Chain 4 (Humanized B2E5-48); Variable Region of Light Chain 4 (Humanized B2E5-48)
Consider B5, for which, in the assay on hEva1-mouse Fc [1], the ka is 15340 M⁻¹ s⁻¹ and the kd is 0.01525 s⁻¹.

B6: chimeric human IgG1 (constant regions of the B2E5-48 mouse antibody replaced by those of human IgG type 1) (antibody, V domains shown)
VH: QVQLQQPGAELVKPGASVKLSCKASGYTFTNYWMHWVKLRPGQGFEWIGEINPTNGGTDYNEKFKRKATLTVDKSSSTAYMQLSSLTSEDSAVYYCTIYTTALDYWGQGTTLTVSS
VL: QIVLTQSPALMSASPGERVTLTCSASSSVGYMYWYQQKPGSSPKPWIYVTSNLASGVPARFSGSGSGTSYSLTISSMEAEDAATYYCQQWSSNPPTFGAGTKLELK
notes: Mouse B2E5-48 variable regions on human IgG1 constant regions; The same construct was made in HEK293T cells and in CHO cells and both preparations were measured; also called Chimeric antibody (CHO); Chimeric antibody (293T)
For B6, in the assay with hEva1-mouse Fc [2], the Kd (commonly the constant that tells how readily two partners part at equilibrium) was 445 nM; the koff (commonly a measure of how fast the partners let go of each other) turned out to be 0.00845 s⁻¹; the kon – broadly, the second-order rate constant of association – was 19000 M⁻¹ s⁻¹. Further, in the assay with hEva1-mouse Fc [3], the affinity, expressed as Kd, was 482 nM; the koff turned out to be 0.00947 s⁻¹; the kon is 19600 M⁻¹ s⁻¹.

B7: Chimeric antibody (CHO): chimeric human IgG1 obtained by substituting the constant regions of the B2E5-48 mouse antibody with those of human IgG type 1; control (antibody, V domains shown)
VH: QVQLQQPGAELVKPGASVKLSCKASGYTFTNYWMHWVKLRPGQGFEWIGEINPTNGGTDYNEKFKRKATLTVDKSSSTAYMQLSSLTSEDSAVYYCTIYTTALDYWGQGTTLTVSS
VL: QIVLTQSPALMSASPGERVTLTCSASSSVGYMYWYQQKPGSSPKPWIYVTSNLASGVPARFSGSGSGTSYSLTISSMEAEDAATYYCQQWSSNPPTFGAGTKLELK
For the molecule B7, in the assay on hEva1-mouse Fc [1], the ka was found to be 19010 M⁻¹ s⁻¹ and the kd turned out to be 0.008447 s⁻¹.

B8: Chimeric antibody (293T): chimeric human IgG1 obtained by substituting the constant regions of the B2E5-48 mouse antibody with those of human IgG type 1; control (antibody, V domains shown)
VH: QVQLQQPGAELVKPGASVKLSCKASGYTFTNYWMHWVKLRPGQGFEWIGEINPTNGGTDYNEKFKRKATLTVDKSSSTAYMQLSSLTSEDSAVYYCTIYTTALDYWGQGTTLTVSS
VL: QIVLTQSPALMSASPGERVTLTCSASSSVGYMYWYQQKPGSSPKPWIYVTSNLASGVPARFSGSGSGTSYSLTISSMEAEDAATYYCQQWSSNPPTFGAGTKLELK
Turning to B8, in the assay on hEva1-mouse Fc [1], the ka is 19640 M⁻¹ s⁻¹ and the kd is 0.00947 s⁻¹.
